In the RNAGym collection of RNA variant scans (doi:10.7554/elife.80360):

B1: CPEB3 Ribozyme (parent)
chain: GGGGGCCACAGCAGAAGCGUUCACGUCGCGGCCCCUGUCAGAUUCUGGUGAAUCUGCGAAUUCUGCUGU

Variants of: B1
Assay: self-cleavage, relative activity (ratio to wild type); higher = more cleavage; co-transcriptional

Compared with A16U U38G, A16C C32A is lower in self-cleavage: 0.272 for the first, 0.0786 for the second.

First: A16C A59U
Second: A16C A59C
The self-cleavage of the first is higher: 0.221 for the first, 0.106 for the second.

First: A15G A42U
Second: A16G U46A
The self-cleavage of the first is lower: 0.946 for the first, 0.948 for the second.

Going from A16G G56U to A15C G50U, the self-cleavage rises from 0.634 to 0.878.

First: A15G G65A
Second: A15G G31U
The self-cleavage of the first is higher: 0.82 for the first, 0.558 for the second.

Going from G17A A59U to G17A A59C, the self-cleavage rises from 0.246 to 0.308.

First: G17A G28C
Second: A15G A23C
The self-cleavage of the first is lower: 0.0891 for the first, 0.919 for the second.

First: G17A C45U
Second: A16U C32A
The self-cleavage of the first is lower: 0.463 for the first, 0.491 for the second.

Compared with A16U A40U, A16U A40C is lower in self-cleavage: 0.415 for the first, 0.267 for the second.

First: A16G A60G
Second: A15U C27U
The self-cleavage of the first is higher: 0.663 for the first, 0.153 for the second.

First: A16G C18G
Second: G17A C27A
The self-cleavage of the first is higher: 0.129 for the first, 0.126 for the second.

First: G17A C27G
Second: G17A C27U
The self-cleavage of the first is lower: 0.134 for the first, 0.172 for the second.

Compared with A15G A40U, A15G A40C is lower in self-cleavage: 0.851 for the first, 0.631 for the second.

First: A16G U69C
Second: A16G U64C
The self-cleavage of the first is higher: 1.08 for the first, 0.513 for the second.

Compared with A16C C33U, A15C G58U is higher in self-cleavage: 0.261 for the first, 0.936 for the second.

Going from A16U C24U to A16U C24G, the self-cleavage falls from 0.337 to 0.141.

First: A15C U49A
Second: A15C G56C
The self-cleavage of the first is higher: 0.889 for the first, 0.446 for the second.

Going from A16C C66U to G17A C18U, the self-cleavage falls from 0.203 to 0.122.

First: A16G U55A
Second: A16G U55G
The self-cleavage of the first is lower: 0.659 for the first, 0.67 for the second.

Going from A15G C57U to A16U A51C, the self-cleavage rises from 0.294 to 0.71.

First: A16U G47C
Second: A16U G47U
The self-cleavage of the first is higher: 0.906 for the first, 0.879 for the second.

First: A16U U55A
Second: A16U U55C
The self-cleavage of the first is higher: 0.624 for the first, 0.539 for the second.

First: A15C U26G
Second: A15U U55G
The self-cleavage of the first is higher: 0.586 for the first, 0.335 for the second.

Compared with A16C U61C, A16C U61A is higher in self-cleavage: 0.26 for the first, 0.418 for the second.

First: A15C G65U
Second: A15C G65C
The self-cleavage of the first is higher: 0.411 for the first, 0.277 for the second.

First: A15C U55G
Second: A16G U21A
The self-cleavage of the first is lower: 0.32 for the first, 0.92 for the second.

Going from A16U A42U to A15U U44C, the self-cleavage falls from 0.82 to 0.516.

Going from A15U U44G to A16C U46G, the self-cleavage falls from 0.713 to 0.309.

Going from A16C U46C to A16G C27A, the self-cleavage rises from 0.293 to 0.481.

Compared with A16G C27G, A16G C27U is higher in self-cleavage: 0.102 for the first, 0.228 for the second.

First: A16G A59U
Second: A16C U43G
The self-cleavage of the first is higher: 0.535 for the first, 0.198 for the second.

First: A16C U43C
Second: A15G G50U
The self-cleavage of the first is lower: 0.204 for the first, 0.995 for the second.

Compared with A15G G50C, G17A A40G is lower in self-cleavage: 0.956 for the first, 0.344 for the second.

First: A16C U20A
Second: A16C U20C
The self-cleavage of the first is lower: 0.0817 for the first, 0.125 for the second.

Going from G17A C34G to A15C U62A, the self-cleavage rises from 0.197 to 0.912.

Compared with A15C U62C, A15C U62G is higher in self-cleavage: 0.841 for the first, 1.02 for the second.

Compared with A16U U20G, A15G U44C is higher in self-cleavage: 0.108 for the first, 0.99 for the second.

Compared with A15G U44A, A15G U44G is lower in self-cleavage: 0.987 for the first, 0.954 for the second.

Going from A16C U69C to A15U A16G, the self-cleavage falls from 0.82 to 0.56.

Compared with A16C A52G, A16C C22U is lower in self-cleavage: 0.389 for the first, 0.0688 for the second.

Going from A15C U67A to A15C U67C, the self-cleavage falls from 0.916 to 0.888.

Going from A16C U64C to A16C U64A, the self-cleavage falls from 0.145 to 0.0981.

Going from A16C C34A to A15C U43A, the self-cleavage rises from 0.165 to 0.459.

Compared with A15C U43G, A16G U67A is higher in self-cleavage: 0.491 for the first, 0.907 for the second.

Going from A16C U67C to A16G G68A, the self-cleavage rises from 0.289 to 1.02.

Compared with A15G U62G, G17A C29G is lower in self-cleavage: 0.94 for the first, 0.749 for the second.

Compared with A16G A42G, A16G A42U is lower in self-cleavage: 0.855 for the first, 0.83 for the second.

Going from A15G U20C to G17A C24U, the self-cleavage rises from 0.126 to 0.142.

Going from G17A A51U to A16U C22U, the self-cleavage falls from 0.433 to 0.168.

Going from A16U C22G to A15U U46G, the self-cleavage rises from 0.161 to 0.898.

First: A15U U46A
Second: A16U G30U
The self-cleavage of the first is higher: 0.985 for the first, 0.261 for the second.

Going from A16G G58U to A16G G58A, the self-cleavage falls from 0.962 to 0.932.

Compared with A15U C35A, A15U C35G is lower in self-cleavage: 0.192 for the first, 0.187 for the second.

First: A16C G56A
Second: A16C G56C
The self-cleavage of the first is higher: 0.231 for the first, 0.131 for the second.

First: A16U G48U
Second: A16U C63A
The self-cleavage of the first is higher: 0.907 for the first, 0.501 for the second.

First: A16U C63U
Second: A16G C33A
The self-cleavage of the first is lower: 0.732 for the first, 0.795 for the second.

Compared with A15G U21C, A15U C33G is lower in self-cleavage: 0.847 for the first, 0.294 for the second.

Going from A16C G28U to A16C U53A, the self-cleavage rises from 0.113 to 0.16.

Going from A16U C29U to A15G A52G, the self-cleavage rises from 0.117 to 1.03.

Compared with A15G A52U, A15U U38C is lower in self-cleavage: 0.959 for the first, 0.613 for the second.

First: A15U G65U
Second: A15U G65A
The self-cleavage of the first is lower: 0.47 for the first, 0.753 for the second.

Compared with A16C C57G, A16C C57A is higher in self-cleavage: 0.0856 for the first, 0.129 for the second.

Compared with A16C U44G, A16C U44A is lower in self-cleavage: 0.307 for the first, 0.0709 for the second.

Going from A15U U67C to A16U C57A, the self-cleavage falls from 0.827 to 0.293.

Compared with A15C U21G, A15U U61A is higher in self-cleavage: 0.157 for the first, 0.931 for the second.

Compared with A15G G41A, A15G G41C is higher in self-cleavage: 0.732 for the first, 0.777 for the second.

Going from A16G C29G to A16G U62G, the self-cleavage rises from 0.309 to 0.593.

First: A16U U21G
Second: A16U U21C
The self-cleavage of the first is lower: 0.294 for the first, 0.322 for the second.

First: A16U G25U
Second: A16U G25A
The self-cleavage of the first is lower: 0.134 for the first, 0.206 for the second.

Going from A15G U43A to A15G U43G, the self-cleavage falls from 0.851 to 0.779.

Compared with A16G C66A, A15U A60U is lower in self-cleavage: 0.579 for the first, 0.325 for the second.

First: A16G G41A
Second: A15U G41A
The self-cleavage of the first is higher: 0.404 for the first, 0.28 for the second.

First: A16G C35G
Second: A16G C35A
The self-cleavage of the first is higher: 0.373 for the first, 0.179 for the second.

First: A15G A59C
Second: A16G C63U
The self-cleavage of the first is lower: 0.649 for the first, 0.861 for the second.

Compared with A15G C32G, A16C A42G is lower in self-cleavage: 0.415 for the first, 0.24 for the second.

Going from A15C G19C to A15C G19U, the self-cleavage falls from 0.214 to 0.164.

Going from A15C G19A to A15C C66G, the self-cleavage rises from 0.185 to 0.351.

Compared with A16G U53G, A16G U53A is lower in self-cleavage: 0.784 for the first, 0.752 for the second.

First: A16U G19C
Second: A16G A40G
The self-cleavage of the first is lower: 0.112 for the first, 0.788 for the second.

Compared with A16G C22A, A16G C22U is lower in self-cleavage: 0.167 for the first, 0.156 for the second.

Going from A15U C57U to A16U U44G, the self-cleavage rises from 0.323 to 0.767.

Compared with A15G G28C, A16U G50A is higher in self-cleavage: 0.165 for the first, 0.884 for the second.

First: A16U G50C
Second: A16U C18U
The self-cleavage of the first is higher: 0.762 for the first, 0.301 for the second.

In the case of A16U C18G, the self-cleavage is reported as 0.167.
